The values that follow are results of earlier work, collected in PMC8444577.

The series addresses IL-18 (Homo sapiens) (UniProt Q14116).

IL-18BP, sequence (O95998 31-194): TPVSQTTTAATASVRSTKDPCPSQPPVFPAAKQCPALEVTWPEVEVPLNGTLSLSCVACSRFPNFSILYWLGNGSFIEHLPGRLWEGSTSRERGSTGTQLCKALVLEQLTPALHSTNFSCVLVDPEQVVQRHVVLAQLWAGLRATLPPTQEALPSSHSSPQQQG
IL-18 (Homo sapiens), sequence (Q14116 37-193): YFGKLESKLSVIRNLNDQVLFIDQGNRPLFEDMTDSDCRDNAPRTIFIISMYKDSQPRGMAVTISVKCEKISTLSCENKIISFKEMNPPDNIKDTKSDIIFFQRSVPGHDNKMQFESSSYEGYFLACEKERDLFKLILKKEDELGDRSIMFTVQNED

The term Kd denotes the constant that tells how readily two partners part at equilibrium. For IL-18BP (from UniProt O95998), the dissociation constant Kd was 0.4 nM.
